Here are results for two molecules from paper PMC11143374, “Conformations of Bcs1L undergoing ATP hydrolysis suggest a concerted translocation mechanism for folded iron-sulfur protein substrate” (Nature Communications, 2024).

Assay [1] has as its target AAA domain of mBcs1L (ΔNmBcs1L, residues 151-420) (mouse) (UniProt Q9CZP5). Nature of the assay: native gel or EMSA; BN-PAGE of ΔNmBcs1L with AMP-PNP or ATPγS. Background: Mobility shift assays separate free from complexed probe on a gel.
In assay [2] the target is T1, mouse Bcs1L (mBcs1L), wild type, hexahistidine-tagged (mouse, UniProt Q9CZP5 1-418).
T1 sequence (looked up): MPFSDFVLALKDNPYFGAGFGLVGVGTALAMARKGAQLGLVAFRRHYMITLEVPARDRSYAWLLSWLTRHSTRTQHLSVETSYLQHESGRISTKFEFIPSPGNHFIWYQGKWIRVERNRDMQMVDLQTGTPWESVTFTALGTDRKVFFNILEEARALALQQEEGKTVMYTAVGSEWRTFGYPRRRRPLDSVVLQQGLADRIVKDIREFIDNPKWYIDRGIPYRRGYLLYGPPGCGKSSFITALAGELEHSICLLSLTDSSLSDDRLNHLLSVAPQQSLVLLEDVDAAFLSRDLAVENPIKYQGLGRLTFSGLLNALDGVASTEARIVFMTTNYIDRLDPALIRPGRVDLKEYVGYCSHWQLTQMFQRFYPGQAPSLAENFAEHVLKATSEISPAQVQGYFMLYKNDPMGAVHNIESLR
The assay is described as follows: cell-based or functional assay.

For the molecule “AAA domain of mBcs1L (ΔNmBcs1L, residues 151-420) (from UniProt Q9CZP5 151-418) (domain or fragment)”, the stoichiometry N in assay [1] came to 7.

B1: extrinsic domain of the Rieske iron-sulfur protein (ISP-ED), bovine (domain or fragment, UniProt P13272 146-274, looked up)
chain: VLAMSKIEIKLSDIPEGKNMAFKWRGKPLFVRHRTKKEIDQEAAVEVSQLRDPQHDLERVKKPEWVILIGVCTHLGCVPIANAGDFGGYYCPCHGSHYDASGRIRKGPAPLNLEVPSYEFTSDDMVIVG
Turning to B1, in assay [2], the “ATPase activity of mBcs1L (malachite green, 37 °C, 15 min) at different ISP-ED:mBcs1L heptamer molar ratios; maximal stimulation at a ratio of 3-4, no further change at higher ratios” value was approximately 50 % stimulation.

As usually defined, the stoichiometry N is the number of molecules, sites or subunits per partner or assembly.
